Experimental findings from US6805863B2, “Methods of modulating immune coagulation” (Trillium Therapeutics Inc., priority 1997, dated 2004) are described below.

“And” between values parts separate entries of the source, which are not always exact repeats. Identical values can stand only once. Marks after values point to notes of the source that are not given here.

The test system of one assay is DBA/2-mated CBA/J mice. Kind of assay: Fetal loss in DBA/2-mated CBA/J mice: role of asialoGM1+ NK cells, macrophages and cytokines. The class given is in vivo, mouse. From the text: Inbred mice of strains CBA/J and DBA/2 were obtained from Iffa Credo. France C57B1/6J and DBA/2 mice were obtained from the Jackson Laboratories, Bar Harbor, Me. C57B1/6 mice with knockout of the interferon response element IRF-1 were generated as previously described (Duncan, G. S. et al., J. Exp. Med. 184:2043 (1996)) and bred in at the Ontario Cancer Institute, Toronto. CBA/J mice were maintained in the Paris colony under conventional open-top wire cage conditions with food and water ad lib and a 12 hour light-dark cycle. Mice in the Toronto colony were maintained in a barrier facility. Female CBA/J, C57B1/6 or C57B1/6 IRF−/− mice were mated by overnight cohabitation with a DBA/2J male, and the morning of sighting a vaginal plug was defined as day 0.5 of pregnancy.
Pregnant CBA/J mice were depleted of NK cells by injection of 1 ml rabbit IgG anti-asialoGM1 antibody (Immunocorp, Richmond, Va.) ip on day 6.5 of gestation; phosphate buffered saline (PBS) was used as a control as it has been previously shown to be equivalent to non-immune rabbit IgG (Clark, D. A., Crit. Rev. Immunol. 11:215 (1991)). Macrophage depletion was performed by ip injection of 100 mg/kg silicon dioxide twice a week for 4 weeks prior to mating, as described in Baek, H-S. and J-W. Yoon (J. Virol. 64:5708 (1990)). Affinity-purified rabbit IgG neutralizing antibody to mouse procoagulant (fg12-prothombinase) was prepared as previously described (Ding, J. W. et al., J. Exp. Med. (1997); Dackiw, A. P. B. et al., Arch. Surg. 131:1273 (1996)); the mice were given a ip injection of 200 μl of a 1/50 dilution of a 5.5 mg/ml preparation of anti-prothombinase or control rabbit antibody each day beginning on day 3.5 of gestation. Hormonal support of pregnancy sufficient to replace ovarian function was provided in some experiments by injecting 6.7 ng 17 β-estradiol+1 mg progesterone in 0.1 ml oil im daily beginning on day 4.5 of gestation (Michael, S. D. et al., Biol. Reprod. 12:400 (1975)). One hundred […] of rat monoclonal IgG2b anti-mouse granulocyte antibody RB6-8C5 (Pharmingen) (Stoppacciaro, A. et al., J. Exp. Med. 178:151 (1993)) or isotype control was injected ip on either day 6.5 or on day 8.5 of pregnancy. TNF-α (6 and R&D Systems) 1000 or 2000 units and/or murine recombinant γ-interferon (6 and R&D Systems) 1000 units was injected ip on day 7.5 of pregnancy. On day 13.5 of pregnancy, the mice were sacrificed and the number of resorbing and healthy embryos was counted. In some experiments, the uteri were snap frozen, 5 micron sections were cut, and the tissues were stained with rat monoclonal F4/80 antibody (Caltag, Tebu, France) to macrophages. Briefly, tissue sections were incubated with a 1/30 dilution of F4/80 in PBS for 30 minutes, and binding was detected using peroxidase-streptavidin with biotin-labelled anti-rat IgG2b second antibody (Secrotec) (Kachkache, M. et al., Biol. Reprod. 45:860 (1991)).
Four to ten mated mice per treatment group were used. The significance of differences in the pooled resorption rate was tested by c^2 of Fisher's Exact test where appropriate.

In the next assay the test system is 125I-prothrombin. The assay can be described thus: Prothrombin cleavage assay. The class given is biochemical. The conditions noted are these: FIG. 22.
Assay [1] relates to recalcified platelet-poor normal human plasma. The assay can be described thus: One-stage clotting assay (procoagulant activity, PCA). The class given is biochemical. On the procedure:
This assay for fg12 prothrombinase was used to directly measure procoagulant activity. High 5 cells infected with recombinant virus expressing the mfg12 fusion protein were subjected to cycles of freeze thawing. They were then assayed for their ability to accelerate the spontaneous clotting time of recalcified platelet-poor normal human plasma as previously described (Levy & Edgington, 1980). Results were quantitated by comparison with serial dilutions of standard rabbit brain thromboplastin. Activities from cells infected with the recombinant virus were compared with those uninfected and wild-type virus infected, and with the purified protein alone. Proteins involved in the coagulation pathway require a phospholipid bilayer for functional activity; therefore purified protein was reconstituted into […] to determine their PCA activity. Additional PCA assays were performed with human plasma deficient in coagulation factors II, V, VII, VIII, X, and XII to determine the nature (factor dependence) of the expressed PCA.

[2] abbreviates: Expt 1, anti-asialoGM1 pretreated (NK depleted) mice, 1000 u day 7.5.
[3] abbreviates: Expt 1, anti-asialoGM1 pretreated (NK depleted) mice, 2000 u day 7.5.
Setting [4] is: Expt 1, day 6.5 PBS, 1000 u ip day 7.5, day 13.5 assay.
Setting [5] is: Expt 1, day 6.5 PBS, 2000 u ip day 7.5, day 13.5 assay.
The mark [6] stands for this setting: Table 9, 20 ng added to H5 cells + RV.
Setting [7] is: Table 9, 100 ng added to H5 cells + RV.
Setting [8] is: Table 9, 3 μg reconstituted into H5 cells.
[9] abbreviates: Table 9, purified protein 3 μg alone.
Setting [10] is: Expt 2, anti-asialoGM1 pretreated (NK depleted) mice, 1000 u IFN-γ, TNF-α 1000 u or 2000 u pooled.
Setting [11] is: Expt 2, day 6.5 PBS, 1000 u IFN-γ, TNF-α 1000 u or 2000 u pooled, day 7.5.

Description for 125I-prothrombin: To determine if the expressed fusion protein acts as a direct prothrombinase, the prothrombin cleavage assay was performed as previously described (Schwartz et al., 1982). 125I-prothrombin was incubated with High 5 cells, both infected or uninfected with the recombinant virus. Purified mfg12 fusion protein was also studied to determine its ability to cleave prothrombin. Human Factor Xa in the presence of Russell's viper venom (RVV) was used as a positive control. Samples were run on 10% SDS-PAGE and analyzed by autoradiography for 125I-prothrombin and their cleavage products.

Take TNF-α: the “% fetal losses” value amounted to 16%^e in the assay with DBA/2-mated CBA/J mice (setting [2]), 22%^e in the assay with DBA/2-mated CBA/J mice (setting [3]), 72%^b in the assay with DBA/2-mated CBA/J mice (setting [4]) and 89%^c in the assay with DBA/2-mated CBA/J mice (setting [5]). Also, the resorptions/total with DBA/2-mated CBA/J mice (setting [2]) is 12/63; in the assay on DBA/2-mated CBA/J mice (setting [3]), 12/55; with DBA/2-mated CBA/J mice (setting [4]), 43/60; in the assay on DBA/2-mated CBA/J mice (setting [5]) it was 57/64.

B1: Purified protein: purified murine fg12 fusion protein with six histidine residues and an enterokinase site at the N-terminus, baculovirus expressed (protein)
chain: VEEHNLTEGLEDASAQAACPARLEGSGRCEGSQCPFQLTLPTLTIQLPRQLGSMEEVLKEVRTLKEAVDSLKKSCQDCKLQADDHRDPGGNGGNGAETAEDSRVQELESQVNKLSSELKNAKDQIQGLQGRLETLHLVNMNNIENYVDNKVANLTVVVNSLDGKCSKCPSQEHMQSQPVQHLIYKDCSDHYVLGRRSSGAYRVTPDHRNSSFEVYCDMETMGGGWTVLQARLDGSTNFTREWKDYKAGFGNLEREFWLGNDKIHLLTKSKEMILRIDLEDFNGLTLYALYDQFYVANEFLKYRLHIGNYNGTAGDALRFSRHYNHDLRFFTTPDRDNDRYPSGNCGLYYSSGWWFDSCLSANLNGKYYHQKYKGVRNGIFWGTWPGINQAQPGGYKSSFKQAKMMIRPKNFKP
modifications: left off: small tags and cut ends
notes: purified murine fg12 fusion protein with six histidine residues and an enterokinase site at the N-terminus, baculovirus expressed
With B1, the “cleavage of 125I-prothrombin (SDS-PAGE autoradiography)” value with 125I-prothrombin was “no prothrombin cleavage”. Also, the PCA in assay [1] (Table 7, purified protein 3 μg, uninfected High 5 cells <1) is reported as less than 1 Miliunits/2 × 10^6 cells. Further, the “PCA Time” value in assay [1] (Table 7, purified protein 3 μg, uninfected High 5 cells >240) is 220 s; in assay [1] (setting [6]), 57 s; in assay [1] (setting [7]) it was 54 s; in assay [1] (Table 9, 3 μg added to H5 cells + RV (printed for two lines)), 50 s and 34 s; in assay [1] (setting [8]), 42 s; in assay [1] (setting [9]) it was 220 s. The “PCA Milliunits” value was 1254 mU/2 × 10^6 cells in assay [1] (setting [6]), 1543 mU/2 × 10^6 cells in assay [1] (setting [7]), 3634 mU/2 × 10^6 cells in assay [1] (setting [8]) and less than 1 mU/2 × 10^6 cells in assay [1] (setting [9]). Moreover, the “PCA after reconstitution of purified protein into insect cells” value in assay [1] (preliminary results) is listed as “partial PCA activity recovery”. Besides, the PCA detected result in assay [1] (purified soluble protein alone) is “no activity”. Further, the “prevention of PCA expression by cells infected with recombinant virus” value in assay [1] (soluble mfg12 protein added to cell lysate) is recorded as “incapable of preventing the clotting induced by the cell lysate”.

B2: IFN-γ: murine recombinant γ-interferon (protein, UniProt P01580 23-155, looked up)
Interferon gamma: HGTVIESLESLNNYFNSSGIDVEEKSLFLDIWRNWQKDGDMKILQSQIISFYLRLFEVLKDNQAISNNISVIESHLITTFFSNSKAKKDAFMSIAKFEVNNPQVQRQAFNELIRVVHQLLPESSLRKRKRSRC
In the case of B2, in the assay with DBA/2-mated CBA/J mice (setting [10]), the “% fetal losses” value was determined as 12%^e and the resorptions/total is 12/98. Moreover, in the assay on DBA/2-mated CBA/J mice (setting [11]), the “% fetal losses” value was determined as 85%^g and the resorptions/total is listed as 79/93.
